# B1: PA0321 (Pseudomonas aeruginosa PAO1) (protein)
# chain: MLTIYSDDHRLHHGRHELIGGQFTPCFEKPSRADMVLDRVKAVGLGEVRAPRDFGLEPIRRVHSEGFVRFLQNAWQDWLATGRSHDMLPIAWPTRRLRQTEPDNIDGRLGYYSFDAGAPITAGTWQAITSSANVALSGQSELANGARSVFSLCRPPGHHAAADYMGGYCFFNNAAIAAQAFLDRGAGRVAILDVDYHHGNGTQDIFYDRADVLFTSIHGDPRFEYPYFLGYADEKGNGVGTGYNFNYPLAAGSDWATWSQALQAAIRQIQAYAADALIVSLGVDTFKEDPISQFRLDSPDYLRMGEAIGKLGLATLFVMEGGYAVEEIGINAVNVLQGFEGVHR
# notes: recombinant, E. coli expressed, produced as described before [30]
# B2: PA3774 (Pseudomonas aeruginosa PAO1) (protein)
# chain: MTRRTAFFFDELCLWHAAGPHALTLPVGGWVQPPAAAGHAESPETKRRLKSLLDVSGLTARLQLRSAPPASDEDLLRVHPAHYLERFKALSDAGGGSLGQDAPIGPGSYEIARLSAGLAIAALDAVLAGEADNAYSLSRPPGHHCLPDQAMGFCFFANIAVAIEAAKARHGVERVAVLDWDVHHGNGTQAIYYRRDDVLSISLHQDGCFPPGYSGAEDIGEDRGRGFNLNVPLLPGGGHDAYMQAMQRIVLPALERFRPQLIVVASGFDANAVDPLARMQLHSDSFRAMTAMVRDAAERHAGGRLVVVHEGGYSEAYVPFCGLAVIEELSGVRSAVRDPLRDFIELQQPNAAFRDFQRQRLEELAAQFGLCPAQPLQAAR
# B3: PA1409 (Pseudomonas aeruginosa PAO1) (protein)
# chain: MLSVYSDDHRLHFGQSELVDGKLQPCFEMPSRADTVLARVKSQNLGEVIAPKDFGREPLLRLHDAAYLDFLQGAWARWTAEGHSGDLVSTTFPGRRLRRDGPIPTALMGELGYYSFDTEAPITAGTWQAIYSSAQVALTAQEHMRQGARSAFALCRPPGHHAGGDFMGGYCFLNNAAIATQAFLDQGARRVAILDVDYHHGNGTQDIFYRRDDVLFASIHGDPRVEYPYFLGYADERGEGAGEGCNHNYPLAHGSGWDLWSAALDDACVRIAGYAPDALVISLGVDTYKEDPISQFRLDSPDYLRMGERIARLGLPTLFIMEGGYAVEAIGINAVNVLQGYEGAAR
# notes: as for B1
# How the values were obtained:
# [1] = test system: CC(=O)NCCCC[C@H](NC(=O)OC(C)(C)C)C(=O)Nc1ccc2c(C)cc(=O)oc2c1; experiment: purified protein; details: pH 8, 30 °C, 20 mM Tris-HCl, 50 mM NaCl
# [2] = test system: Cc1cc(=O)oc2cc(NC(=O)[C@H](CCCCNC(=O)C(F)(F)F)NC(=O)OC(C)(C)C)ccc12; experiment: purified protein; details: pH 8, 30 °C, 20 mM Tris-HCl, 50 mM NaCl
# [3] = substrate: CC(=O)NCCCCCN; experiment: diamine oxidase coupled colorimetric assay; format: biochemical, Pseudomonas aeruginosa; details: pH 7.4, 21 °C, 100 mM HEPES
# Description: (§1) diamine oxidase coupled colorimetric assay on PA0321
# [4] = substrate: CC(=O)NCCCCN; experiment: diamine oxidase coupled colorimetric assay; format: biochemical, Pseudomonas aeruginosa; details: pH 7.4, 21 °C, 100 mM HEPES
# Description: as §1
# [5] = substrate: Cc1cc(=O)oc2cc(NC(=O)[C@H](CCCCNC(=O)C(F)(F)F)NC(=O)OC(C)(C)C)ccc12; experiment: purified protein; details: pH 8, 30 °C, 20 mM Tris-HCl, 50 mM NaCl; remark: listed apart in the source
# [6] = substrate: CC(=O)NCCCCCN; experiment: diamine oxidase coupled colorimetric assay; format: biochemical, Pseudomonas aeruginosa; details: pH 7.4, 21 °C, 100 mM HEPES; remark: listed apart in the source
# Description: (§2) diamine oxidase coupled colorimetric assay on PA1409
# [7] = substrate: CC(=O)NCCCCN; experiment: diamine oxidase coupled colorimetric assay; format: biochemical, Pseudomonas aeruginosa; details: pH 7.4, 21 °C, 100 mM HEPES; remark: listed apart in the source
# Description: as §2
Molecule,Km [1],Km [5],further results
HDAH (Alcaligenaceae bacterium FB188),26 ± 4 µM,,Vmax [1]: 0.0258 µmol/min/mg; Km [2]: 7.2 ± 1.1 µM; Vmax [2]: 0.0138 µmol/min/mg
PA0321 (Pseudomonas aeruginosa PAO1),22 ± 10 µM,,
PA1409 (Pseudomonas aeruginosa PAO1),223 ± 12 µM,,
PA3774 (Pseudomonas aeruginosa PAO1),95 ± 7 µM,,
B1,,11 ± 1 µM,Km [3]: 284 ± 39 µM; Km [4]: 411 ± 34 µM
B2,,21 ± 2 µM,
B3,,84 ± 15 µM,Km [6]: 465 ± 53 µM; Km [7]: 503 ± 60 µM

# Source: article PMC4784309, “Substrate specificity and function of acetylpolyamine amidohydrolases from Pseudomonas aeruginosa” (BMC Biochemistry, 2016)
